Measured values from patent publication US20240228572A1 (I2O THERAPEUTICS, published 2024).
*1 amine or outer side, *2 acyl side, *3 side chain or, on linkers, in order; H or OH if unused. Bridges are numbered along the chain shown (N, C = ends). Primed or numbered codes have the meaning given here. Where no end group is shown, it is not given here. Side-chain parts run from the residue outwards. [ ]: non-standard residue; d: D form. The star is where a group is joined. dpeg″ = spacer —[CO(CH2)O(CH2)2O(CH2)NH]—, O=C(COCCOCN[*:1])[*:2]; dpeg = —[CO(CH2)O(CH2)2O(CH2)NH]— spacer, O=C(COCCOCN[*:1])[*:2]; C20 diacid = O=C(O)CCCCCCCCCCCCCCCCCCC(=O)*; γGlu = O=C(O)[C@H](CCC(=O)[*:2])N[*:1]; Aib = CC(C)(N)C(=O)O

B1: Compound A39 (peptide)
peptide: YSHGTFTSDYSKYLD[Aib]KYAKK([γGlu-γGlu-dpeg″-C20 diacid])FVKWLEEEPSSGAPPPS-OH
modifications: lactam 24-28; N-terminus assumed
SMILES: CC(C)C[C@@H]1NC(=O)[C@H](Cc2c[nH]c3ccccc23)NC(=O)[C@@H](NC(=O)[C@@H](NC(=O)[C@H](Cc2ccccc2)NC(=O)[C@H](CCCCNC(=O)CC[C@H](NC(=O)CC[C@H](NC(=O)COCCOCNC(=O)CCCCCCCCCCCCCCCCCCC(=O)O)C(=O)O)C(=O)O)NC(=O)[C@H](CCCCN)NC(=O)[C@H](C)NC(=O)[C@H](Cc2ccc(O)cc2)NC(=O)[C@H](CCCCN)NC(=O)C(C)(C)NC(=O)[C@H](CC(=O)O)NC(=O)[C@H](CC(C)C)NC(=O)[C@H](Cc2ccc(O)cc2)NC(=O)[C@H](CCCCN)NC(=O)[C@H](CO)NC(=O)[C@H](Cc2ccc(O)cc2)NC(=O)[C@H](CC(=O)O)NC(=O)[C@H](CO)NC(=O)[C@@H](NC(=O)[C@H](Cc2ccccc2)NC(=O)[C@@H](NC(=O)CNC(=O)[C@H](Cc2c[nH]cn2)NC(=O)[C@H](CO)NC(=O)[C@@H](N)Cc2ccc(O)cc2)[C@@H](C)O)[C@@H](C)O)C(C)C)CCCCNC(=O)CC[C@@H](C(=O)N[C@@H](CCC(=O)O)C(=O)N2CCC[C@H]2C(=O)N[C@@H](CO)C(=O)N[C@@H](CO)C(=O)NCC(=O)N[C@@H](C)C(=O)N2CCC[C@H]2C(=O)N2CCC[C@H]2C(=O)N2CCC[C@H]2C(=O)N[C@@H](CO)C(=O)O)NC(=O)[C@H](CCC(=O)O)NC1=O
B2: Compound A38 (peptide)
peptide: YSHGTFTSDYSKYLD[Aib]KYAEK([γGlu-γGlu-dpeg″-C20 diacid])FVKWLEEEPSSGAPPPS-OH
modifications: lactam 24-28; N-terminus assumed
SMILES: CC(C)C[C@@H]1NC(=O)[C@H](Cc2c[nH]c3ccccc23)NC(=O)[C@@H](NC(=O)[C@@H](NC(=O)[C@H](Cc2ccccc2)NC(=O)[C@H](CCCCNC(=O)CC[C@H](NC(=O)CC[C@H](NC(=O)COCCOCNC(=O)CCCCCCCCCCCCCCCCCCC(=O)O)C(=O)O)C(=O)O)NC(=O)[C@H](CCC(=O)O)NC(=O)[C@H](C)NC(=O)[C@H](Cc2ccc(O)cc2)NC(=O)[C@H](CCCCN)NC(=O)C(C)(C)NC(=O)[C@H](CC(=O)O)NC(=O)[C@H](CC(C)C)NC(=O)[C@H](Cc2ccc(O)cc2)NC(=O)[C@H](CCCCN)NC(=O)[C@H](CO)NC(=O)[C@H](Cc2ccc(O)cc2)NC(=O)[C@H](CC(=O)O)NC(=O)[C@H](CO)NC(=O)[C@@H](NC(=O)[C@H](Cc2ccccc2)NC(=O)[C@@H](NC(=O)CNC(=O)[C@H](Cc2c[nH]cn2)NC(=O)[C@H](CO)NC(=O)[C@@H](N)Cc2ccc(O)cc2)[C@@H](C)O)[C@@H](C)O)C(C)C)CCCCNC(=O)CC[C@@H](C(=O)N[C@@H](CCC(=O)O)C(=O)N2CCC[C@H]2C(=O)N[C@@H](CO)C(=O)N[C@@H](CO)C(=O)NCC(=O)N[C@@H](C)C(=O)N2CCC[C@H]2C(=O)N2CCC[C@H]2C(=O)N2CCC[C@H]2C(=O)N[C@@H](CO)C(=O)O)NC(=O)[C@H](CCC(=O)O)NC1=O
B3: Compound A36 (peptide)
peptide: Ac-YSHGTFTSDYSKYLD[Aib]KYAQK([γGlu-γGlu-dpeg″-C20 diacid])FVKWLEEEPSSGAPPPS-OH
modifications: lactam 24-28
SMILES: CC(=O)N[C@@H](Cc1ccc(O)cc1)C(=O)N[C@@H](CO)C(=O)N[C@@H](Cc1c[nH]cn1)C(=O)NCC(=O)N[C@H](C(=O)N[C@@H](Cc1ccccc1)C(=O)N[C@H](C(=O)N[C@@H](CO)C(=O)N[C@@H](CC(=O)O)C(=O)N[C@@H](Cc1ccc(O)cc1)C(=O)N[C@@H](CO)C(=O)N[C@@H](CCCCN)C(=O)N[C@@H](Cc1ccc(O)cc1)C(=O)N[C@@H](CC(C)C)C(=O)N[C@@H](CC(=O)O)C(=O)NC(C)(C)C(=O)N[C@@H](CCCCN)C(=O)N[C@@H](Cc1ccc(O)cc1)C(=O)N[C@@H](C)C(=O)N[C@@H](CCC(N)=O)C(=O)N[C@@H](CCCCNC(=O)CC[C@H](NC(=O)CC[C@H](NC(=O)COCCOCNC(=O)CCCCCCCCCCCCCCCCCCC(=O)O)C(=O)O)C(=O)O)C(=O)N[C@@H](Cc1ccccc1)C(=O)N[C@H](C(=O)N[C@H]1CCCCNC(=O)CC[C@@H](C(=O)N[C@@H](CCC(=O)O)C(=O)N2CCC[C@H]2C(=O)N[C@@H](CO)C(=O)N[C@@H](CO)C(=O)NCC(=O)N[C@@H](C)C(=O)N2CCC[C@H]2C(=O)N2CCC[C@H]2C(=O)N2CCC[C@H]2C(=O)N[C@@H](CO)C(=O)O)NC(=O)[C@H](CCC(=O)O)NC(=O)[C@H](CC(C)C)NC(=O)[C@H](Cc2c[nH]c3ccccc23)NC1=O)C(C)C)[C@@H](C)O)[C@@H](C)O

These binders were tested against T1, human Glucagon receptor (GCGR) (human, UniProt P47871 26-477) (assay: cell-based or functional assay).

Binder	pEC50, cAMP accumulation
YSHGTFTSDYSKYLDK([γGlu-γGlu-dpeg″-C20 diacid])KYAEKFVKWLENEPSSGAPPPS-OH (lactam 20-24) [Compound A27]	12 pEC50 (-log M)
YSHGTFTSDYSKYLDK([γGlu-γGlu-dpeg″-C20 diacid])KYAEKFVKWLEDEPSSGEPPPS-OH (lactam 20-24) [Compound A31]	11.9 pEC50 (-log M)
YSHGTFTSDYSKYLDK([γGlu-γGlu-dpeg″-C20 diacid])KYAEKFVKWLESEPSSGAPPPS-OH (lactam 20-24) [Compound A28]	11.7 pEC50 (-log M)
YSHGTFTSDYSKYLDK([γGlu-γGlu-dpeg″-C20 diacid])KYAEKFVKWLEDEPSSGAPPPS-NH2 (lactam 20-24) [Compound A34]	11.9 pEC50 (-log M)
YSHGTFTSDYSKYLDK([γGlu-γGlu-dpeg″-C20 diacid])KYAEKFVKWLEKEPSSGAPPPS-OH (lactam 20-24) [Compound A26]	11.1 pEC50 (-log M)
Ac-YSHGTFTSDYSKYLDK([γGlu-γGlu-dpeg″-C20 diacid])KYAEKFVKWLEDEPSSGAPPPS-OH (lactam 20-24) [Compound A37]	11.5 pEC50 (-log M)
YSHGTFTSDYSKYLDK([γGlu-γGlu-dpeg″-C20 diacid])KYAEKFVKWLEDEPSSGSPPPS-OH (lactam 20-24) [Compound A33]	11.9 pEC50 (-log M)
B1	11.7 pEC50 (-log M)
YSHGTFTSDYSKYLDK([γGlu-γGlu-dpeg-C20 diacid])KYAQEF[Aib]QWLEDEPSSGAPPPS-OH [Compound A7]	10.7 pEC50 (-log M)
B2	11.4 pEC50 (-log M)
YSHGTFTSDYSKYLD[Aib]KYAQK([γGlu-γGlu-dpeg-C20 diacid])FV[Aib]WLEDEPSSGAPPPS-OH [Compound A6]	12.2 pEC50 (-log M)
B3	10.8 pEC50 (-log M)
YSHGTFTSDYSKYLDK([γGlu-γGlu-dpeg″-C20 diacid])KYAEKFVKWLEDEPSSGKPPPS-OH (lactam 20-24) [Compound A32]	11.7 pEC50 (-log M)
YSHGTFTSDYSKYLD[Aib]KYAQK([γGlu-γGlu-dpeg″-C20 diacid])FVKWLEDEPSSGAPPPS-OH (lactam 24-28) [Compound A30]	12.5 pEC50 (-log M)
YSHGTFTSDYSKYLDK([γGlu-γGlu-dpeg″-C20 diacid])KYAEKFVKWLEDE-NH2 (lactam 20-24) [Compound A35]	11.9 pEC50 (-log M)

These binders were tested against T2, human GLP-1 receptor (GLP-1R) (human, UniProt P43220 24-463) (assay: cell-based or functional assay).
T2 sequence (P43220 24-463): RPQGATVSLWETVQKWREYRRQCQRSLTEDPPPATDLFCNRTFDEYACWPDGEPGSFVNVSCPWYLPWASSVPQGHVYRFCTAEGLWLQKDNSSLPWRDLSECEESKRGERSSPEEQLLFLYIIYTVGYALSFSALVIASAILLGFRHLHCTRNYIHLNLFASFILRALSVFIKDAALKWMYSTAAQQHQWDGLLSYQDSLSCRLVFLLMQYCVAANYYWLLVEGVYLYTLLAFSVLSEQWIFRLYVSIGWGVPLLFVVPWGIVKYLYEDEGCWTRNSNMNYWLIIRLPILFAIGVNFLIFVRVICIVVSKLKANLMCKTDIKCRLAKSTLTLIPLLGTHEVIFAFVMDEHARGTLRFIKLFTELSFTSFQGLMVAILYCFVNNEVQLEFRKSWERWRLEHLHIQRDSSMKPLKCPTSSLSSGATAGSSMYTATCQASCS

Binder	pEC50, cAMP accumulation
YSHGTFTSDYSKYLDK([γGlu-γGlu-dpeg″-C20 diacid])KYAEKFVKWLENEPSSGAPPPS-OH (lactam 20-24) [Compound A27]	< 9 pEC50 (-log M)
YSHGTFTSDYSKYLDK([γGlu-γGlu-dpeg″-C20 diacid])KYAEKFVKWLEDEPSSGEPPPS-OH (lactam 20-24) [Compound A31]	< 9 pEC50 (-log M)
YSHGTFTSDYSKYLDK([γGlu-γGlu-dpeg″-C20 diacid])KYAEKFVKWLESEPSSGAPPPS-OH (lactam 20-24) [Compound A28]	< 9 pEC50 (-log M)
YSHGTFTSDYSKYLDK([γGlu-γGlu-dpeg″-C20 diacid])KYAEKFVKWLEDEPSSGAPPPS-NH2 (lactam 20-24) [Compound A34]	< 9 pEC50 (-log M)
YSHGTFTSDYSKYLDK([γGlu-γGlu-dpeg″-C20 diacid])KYAEKFVKWLEKEPSSGAPPPS-OH (lactam 20-24) [Compound A26]	< 9 pEC50 (-log M)
Ac-YSHGTFTSDYSKYLDK([γGlu-γGlu-dpeg″-C20 diacid])KYAEKFVKWLEDEPSSGAPPPS-OH (lactam 20-24) [Compound A37]	< 9 pEC50 (-log M)
YSHGTFTSDYSKYLDK([γGlu-γGlu-dpeg″-C20 diacid])KYAEKFVKWLEDEPSSGSPPPS-OH (lactam 20-24) [Compound A33]	< 9 pEC50 (-log M)
B1	< 9 pEC50 (-log M)
YSHGTFTSDYSKYLDK([γGlu-γGlu-dpeg-C20 diacid])KYAQEF[Aib]QWLEDEPSSGAPPPS-OH [Compound A7]	< 9 pEC50 (-log M)
B2	< 9 pEC50 (-log M)
YSHGTFTSDYSKYLD[Aib]KYAQK([γGlu-γGlu-dpeg-C20 diacid])FV[Aib]WLEDEPSSGAPPPS-OH [Compound A6]	< 7 pEC50 (-log M)
B3	< 9 pEC50 (-log M)
YSHGTFTSDYSKYLDK([γGlu-γGlu-dpeg″-C20 diacid])KYAEKFVKWLEDEPSSGKPPPS-OH (lactam 20-24) [Compound A32]	< 9 pEC50 (-log M)
YSHGTFTSDYSKYLD[Aib]KYAQK([γGlu-γGlu-dpeg″-C20 diacid])FVKWLEDEPSSGAPPPS-OH (lactam 24-28) [Compound A30]	< 9 pEC50 (-log M)
YSHGTFTSDYSKYLDK([γGlu-γGlu-dpeg″-C20 diacid])KYAEKFVKWLEDE-NH2 (lactam 20-24) [Compound A35]	< 9 pEC50 (-log M)

Molecular target: T1, human Glucagon receptor (GCGR)
Assay: cell-based or functional assay
Remark: another data set of the same source

Binder	pEC50, cAMP accumulation
YSHGTFTSDYSKYLD[Aib]KYAQK([γGlu-γGlu-dpeg-C20 diacid])FV[Aib]WLEDEPSSGAPPPS-OH [Compound A6]	12.2 pEC50 (-log M)

These binders were tested against cynomolgus monkey Glucagon receptor (GCGR) (cynomolgus monkey) (assay: cell-based or functional assay).

Binder	pEC50, cAMP accumulation
YSHGTFTSDYSKYLD[Aib]KYAQK([γGlu-γGlu-dpeg-C20 diacid])FV[Aib]WLEDEPSSGAPPPS-OH [Compound A6]	9.77 pEC50 (-log M)

What follows are binders tested against rat Glucagon receptor (GCGR) (rat, UniProt P30082 27-485) (assay: cell-based or functional assay).
Chain of rat Glucagon receptor (GCGR) (P30082 27-485): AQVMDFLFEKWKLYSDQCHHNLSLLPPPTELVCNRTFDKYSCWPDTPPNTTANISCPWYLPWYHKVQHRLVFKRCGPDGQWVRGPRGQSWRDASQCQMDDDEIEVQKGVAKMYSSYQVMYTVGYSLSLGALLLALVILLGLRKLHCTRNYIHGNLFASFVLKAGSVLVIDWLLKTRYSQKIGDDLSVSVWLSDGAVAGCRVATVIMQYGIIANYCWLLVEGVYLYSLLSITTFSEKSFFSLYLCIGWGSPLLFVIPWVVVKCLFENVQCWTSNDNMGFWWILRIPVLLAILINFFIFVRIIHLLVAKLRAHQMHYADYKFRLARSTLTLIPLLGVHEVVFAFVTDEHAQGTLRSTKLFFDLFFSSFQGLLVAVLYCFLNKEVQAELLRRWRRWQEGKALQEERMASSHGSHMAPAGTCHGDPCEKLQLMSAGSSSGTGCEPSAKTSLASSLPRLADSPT

Binder	pEC50, cAMP accumulation
YSHGTFTSDYSKYLD[Aib]KYAQK([γGlu-γGlu-dpeg-C20 diacid])FV[Aib]WLEDEPSSGAPPPS-OH [Compound A6]	10.3 pEC50 (-log M)

Molecular target: T2, human GLP-1 receptor (GLP-1R)
Assay: cell-based or functional assay
Remark: another data set of the same source

Binder	pEC50, cAMP accumulation
YSHGTFTSDYSKYLD[Aib]KYAQK([γGlu-γGlu-dpeg-C20 diacid])FV[Aib]WLEDEPSSGAPPPS-OH [Compound A6]	< 7 pEC50 (-log M)

These binders were tested against T3, hGIPR (human, UniProt P48546 22-466) (assay: cell-based or functional assay).
T3 sequence (looked up): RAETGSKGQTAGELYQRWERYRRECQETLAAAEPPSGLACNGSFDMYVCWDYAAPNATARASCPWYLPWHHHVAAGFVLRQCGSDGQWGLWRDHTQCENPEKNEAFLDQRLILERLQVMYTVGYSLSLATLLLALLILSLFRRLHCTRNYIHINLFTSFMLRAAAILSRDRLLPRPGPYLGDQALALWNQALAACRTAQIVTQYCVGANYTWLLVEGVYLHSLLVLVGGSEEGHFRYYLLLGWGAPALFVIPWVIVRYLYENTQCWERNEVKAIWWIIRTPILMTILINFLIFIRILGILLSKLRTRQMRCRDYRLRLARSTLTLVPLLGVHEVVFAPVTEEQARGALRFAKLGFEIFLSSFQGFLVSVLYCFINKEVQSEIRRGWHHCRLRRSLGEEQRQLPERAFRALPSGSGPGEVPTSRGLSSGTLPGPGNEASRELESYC

Binder	pEC50, cAMP accumulation
YSHGTFTSDYSKYLD[Aib]KYAQK([γGlu-γGlu-dpeg-C20 diacid])FV[Aib]WLEDEPSSGAPPPS-OH [Compound A6]	< 9 pEC50 (-log M)
